Reference: PMC7820887 (Frontiers in Immunology, 2020)
Where a chain is given by its changes, count along the chain named.

T1: soluble extracellular domain of human IL-5 receptor alpha subunit (sIL-5Rα) (human, UniProt Q01344 21-333)
T1 chain: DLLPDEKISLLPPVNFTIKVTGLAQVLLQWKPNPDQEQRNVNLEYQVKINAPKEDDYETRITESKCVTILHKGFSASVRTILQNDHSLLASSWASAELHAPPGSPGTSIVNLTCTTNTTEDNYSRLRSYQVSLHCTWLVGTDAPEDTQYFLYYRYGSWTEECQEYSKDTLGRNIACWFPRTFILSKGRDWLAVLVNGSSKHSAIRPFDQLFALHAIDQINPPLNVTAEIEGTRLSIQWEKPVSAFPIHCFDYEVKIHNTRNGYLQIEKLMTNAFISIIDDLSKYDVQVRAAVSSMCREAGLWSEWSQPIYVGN

B1: benralizumab analogue (antibody, V domains shown)
VH: EVQLVQSGAEVKKPGASVKVSCKASGYTFTSYVIHWVRQRPGQGLAWMGYINPYNDGTKYNERFKGKVTITSDRSTSTVYMELSSLRSEDTAVYLCGREGIRYYGLLGDYWGQGTLVTVSS
VL: DIQMTQSPSSLSASVGDRVTITCGTSEDIINYLNWYQQKPGKAPKLLIYHTSRLQSGVPSRFSGSGSGTDFTLTISSLQPEDFATYYCQQGYTLPYTFGQGTKVEIK
notes: VH of benralizumab, made by DNA synthesis; VL of benralizumab, made by DNA synthesis; Human IgG1, kappa; VH and VL identical to commercial benralizumab but with core fucose on the Fc N-glycan; also called benralizumab analogue (fucosylated human IgG1); source: HEK293F, transiently transfected, purified (Protein A)
B2: 5R68 (antibody, V domains shown)
VH: QVQLVQSGAEVKKPGSSVKVSCKASGYTFTSYWINWVRQAPGQGLEWIGHIYPTATIAVYNDKFKDKATLTVDKSTNTAYMELSSLRSEDTAVYYCTRDYYGRSYYYAMDYWGQGTTLTVSS
VL: DIQMTQSPSTLSASVGDRVTITCKASQNVGTAVAWYQQKPGKAPKLLIYWASTRHTGVPDRFSGSGSGTDFTLTISSLQPDDFATYYCQQFGRYPYTFGSGTKVEVK
notes: Human IgG1, kappa; selected as scFab by yeast display from the hu2B7 VH-CDR2 library; source: HEK293F, purified (Protein A)
B3: 5R65.18 (antibody, V domains shown)
VH: B2 VH with T54N, A55K, T56N, I57E, A58N, V59Y, D62H, D99E, S104T, Y107S
VL: B2 VL
notes: as the VH of m6 (5R65) with mutations in VH-CDR3 (Kabat residues 95–100d were randomised); no mutations in VL-CDR3; Human IgG1, kappa; selected as scFab by yeast display from the 5R65 CDR3 library under kinetic screening; source: HEK293F, purified (Protein A)
B4: 5R65.39 (antibody, V domains shown)
VH: QVQLVQSGAEVKKPGSSVKVSCKASGYTFTSYWINWVRQAPGQGLEWIGHIYPNKNENYYNHKFKDKATLTVDKSTNTAYMELSSLRSEDTAVYYCTREFYGRSRYSAMDYWGQGTTLTVSS
VL: B2 VL
notes: as for B3
B5: 5R86 (antibody, V domains shown)
VH: B2 VH with A55S, T56S, I57V, A58K, V59F, D62N
VL: B2 VL
notes: as for B2
B6: 5R65.7 (antibody, V domains shown)
VH: B4 VH with S104Q, R105Y, S107Q
VL: B2 VL
notes: as the VH of m6 (5R65) with mutations in VH-CDR3 (Kabat residues 95–100d were randomised); no mutations in VL-CDR3; Human IgG1, kappa; selected as scFab by yeast display from the 5R65 CDR3 library under kinetic screening; also called 5R65.7 Ab; source: HEK293F, purified (Protein A)
B7: 5R65 (antibody, V domains shown)
VH: B4 VH with E99D, F100Y, R105Y, S107Y
VL: B2 VL
notes: Human IgG1, kappa; selected as scFab by yeast display from the hu2B7 VH-CDR2 library; also called 5R65 Ab; source: HEK293F, purified (Protein A)
B8: hu2B7 humanized anti–IL-5Rα antibody (antibody, V domains shown)
VH: B2 VH with T54S, A55E, T56S, I57Y, A58T, V59N, D62Q
VL: B2 VL
notes: VH of hu2B7: CDRs of m2B7 grafted on the FRs of daclizumab, mouse ThrH93 (Kabat) kept; VL of hu2B7: CDRs of m2B7 grafted on the FRs of daclizumab, mouse AspL60 and AspL70 kept; Full-length human IgG1, kappa; source: HEK293F, transiently cotransfected, purified (Protein A)
B9: 5R65.14 (antibody, V domains shown)
VH: B4 VH with F100H, S104P, R105Y, S107N
VL: B2 VL
notes: as for B3
B10: 5R65.45 (antibody, V domains shown)
VH: B4 VH with F100Y, R105Y, S107N
VL: B2 VL
notes: as for B3
B11: 5R80 (antibody, V domains shown)
VH: B2 VH with T54Q, A55K, I57L, A58T, V59I, D62H
VL: B2 VL
notes: as for B2
B12: 5R65.10 (antibody, V domains shown)
VH: B4 VH with F100Y, R105Y, S107A
VL: B2 VL
notes: as for B3
B13: m2B7 murine anti–IL-5Rα antibody (antibody, V domains shown)
VH: QVQLQQPGAELVRPGASVKLSCKASGYTFTSYWINWVKQRPGQGLEWIGHIYPSESYTNYNQKFKDKATLTVDKSSSTAYMQLSSPTSEDSAVYYCTRDYYGRSYYYAMDYWGQGTSVTVSS
VL: DIVMTQSHKFMSTSVGDRVSITCKASQNVGTAVAWYQQKPGQSPKLLIYWASTRHTGVPDRFTGSGSGTDFTFTISNVQSEDLADYFCQQFGRYPYTFGGGTKLEIK
notes: VH of murine m2B7; FRs of mouse germline IGHV1-61*01; VL of murine m2B7; FRs of mouse germline IGKV6-23*01; source: hybridoma supernatant, expanded and purified

Legend:
[1] = target: T2, soluble extracellular domain of human IL-5 receptor alpha subunit (sIL-5Rα) (human, UniProt Q01344); experiment: ELISA; competitive: plates coated with IL-5-mFc (100 ng/well); sIL-5Rα (50 nM) added with anti–IL-5Rα Abs (0–1 µM), 25°C, 1 h; bound sIL-5Rα detected with HRP anti-His; conditions: both partners purified
T2 construct: human IL-5 receptor alpha subunit (IL-5Rα, CD125), extracellular domain, residues 21–333; subcloned from a cDNA of residues 1–420; Expressed from the pSecTag2A vector; migrates at ~50 kDa (glycosylated); A biotinylated form (BirA) was used only for library screening; also called sIL-5α; CD125; source: HEK293F, transiently transfected, purified (Ni-NTA); not shown: Avi, C-terminal, kept; His6, …

[2] = target: T2, soluble extracellular domain of human …; experiment: cell-based or functional assay
[3] = target: T2, soluble extracellular domain of human …; experiment: BLI; Octet QKe, 30°C, 1× kinetics buffer in PBS pH 7.4; Ab immobilised on anti-human IgG Fc capture (AHC) biosensors, sIL-5Rα as analyte; association 300 s, dissociation 600 s; 1:1 binding model; conditions: both partners purified
[4] = target: T1, soluble extracellular domain of human …; experiment: ELISA; competition with plate-immobilized IL-5-mFc
[5] = target: T3, insulin (Homo sapiens (assumed), UniProt P01308); experiment: ELISA; plates coated at 25°C for 1 h with sIL-5Rα (50 ng/well) or off-target antigens (insulin 125 ng/well, hemocyanin 125 ng/well); Abs 8–200 nM in PBST pH 7.4 with 2% skim milk, 25°C, 1 h; detected with HRP anti-human Fc or anti-mouse Fc; conditions: both partners purified
T3 construct: insulin B chain; insulin A chain; Off-target antigen of the nonspecificity ELISA (125 ng/well)
T3 sequence (P01308 whole entry, looked up): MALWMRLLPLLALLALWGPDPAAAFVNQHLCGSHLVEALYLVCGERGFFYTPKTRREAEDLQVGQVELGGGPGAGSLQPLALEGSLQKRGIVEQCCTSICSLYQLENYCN

Binder | IC50 [1] | IC50 of inhibition of rhIL-5 (80 pM)-stimulated proliferation of TF-1/IL-5Rα cells, Abs 0 to 32 nM, 40 h (blocks IL-5 with IL-5Rα) [2] | Kd [3] | koff [3] | kon [3] | IC50 [4] | binding result [5] | NK cell–mediated ADCC against peripheral eosinophils from healthy controls (autologous NK cells 1:5, Ab 1 μM, rhIL-5 100 pM, 20 h), fold against the benralizumab analogue [2]
B1 | ~9.8 nM | ~1.99 nM | 26.8 ± 0.52 nM | 0.0011 s⁻¹ | 41100 M⁻¹ s⁻¹ |  |  | 
B2 |  |  | 24.1 ± 0.47 nM | 0.000566 s⁻¹ | 23500 M⁻¹ s⁻¹ | 28.8 nM | no binding (tested: 100 nM) | 
B3 |  |  | 5.95 ± 0.27 nM | 0.000133 s⁻¹ | 22400 M⁻¹ s⁻¹ |  |  | 
B4 |  |  | 6.13 ± 0.32 nM | 0.000171 s⁻¹ | 28000 M⁻¹ s⁻¹ |  |  | 
B5 |  |  | 11.8 ± 0.51 nM | 0.0003 s⁻¹ | 25400 M⁻¹ s⁻¹ | 14.1 nM | no binding (tested: 100 nM) | 
B6 |  | ~0.57 nM | 4.64 ± 0.23 nM | 0.000147 s⁻¹ | 31700 M⁻¹ s⁻¹ |  |  | ~3 fold
B7 | ~9.5 nM | ~11.8 nM | 14.5 ± 0.29 nM | 0.000329 s⁻¹ | 22700 M⁻¹ s⁻¹ |  | no binding (tested: 100 nM) | ~1.5 fold
B8 |  |  | 47.8 ± 1.06 nM | 0.00106 s⁻¹ | 22200 M⁻¹ s⁻¹ | 57.4 nM |  | 
B9 |  |  | 8.64 ± 0.35 nM | 0.000199 s⁻¹ | 23000 M⁻¹ s⁻¹ |  |  | 
B10 |  |  | 7.26 ± 0.36 nM | 0.000181 s⁻¹ | 24900 M⁻¹ s⁻¹ |  |  | 
B11 |  |  | 16.2 ± 0.59 nM | 0.000365 s⁻¹ | 22500 M⁻¹ s⁻¹ | 24.2 nM | no binding (tested: 100 nM) | 
B12 |  |  | 8.25 ± 0.4 nM | 0.000201 s⁻¹ | 24400 M⁻¹ s⁻¹ |  |  | 
B13 |  |  | 40.2 ± 0.84 nM | 0.000834 s⁻¹ | 20700 M⁻¹ s⁻¹ |  |  | 
